{
  "source": "paper PMC3093450",
  "biological_target": "GST-Sec23p (yeast) (UniProt P15303)",
  "sequence (P15303 2-768)": "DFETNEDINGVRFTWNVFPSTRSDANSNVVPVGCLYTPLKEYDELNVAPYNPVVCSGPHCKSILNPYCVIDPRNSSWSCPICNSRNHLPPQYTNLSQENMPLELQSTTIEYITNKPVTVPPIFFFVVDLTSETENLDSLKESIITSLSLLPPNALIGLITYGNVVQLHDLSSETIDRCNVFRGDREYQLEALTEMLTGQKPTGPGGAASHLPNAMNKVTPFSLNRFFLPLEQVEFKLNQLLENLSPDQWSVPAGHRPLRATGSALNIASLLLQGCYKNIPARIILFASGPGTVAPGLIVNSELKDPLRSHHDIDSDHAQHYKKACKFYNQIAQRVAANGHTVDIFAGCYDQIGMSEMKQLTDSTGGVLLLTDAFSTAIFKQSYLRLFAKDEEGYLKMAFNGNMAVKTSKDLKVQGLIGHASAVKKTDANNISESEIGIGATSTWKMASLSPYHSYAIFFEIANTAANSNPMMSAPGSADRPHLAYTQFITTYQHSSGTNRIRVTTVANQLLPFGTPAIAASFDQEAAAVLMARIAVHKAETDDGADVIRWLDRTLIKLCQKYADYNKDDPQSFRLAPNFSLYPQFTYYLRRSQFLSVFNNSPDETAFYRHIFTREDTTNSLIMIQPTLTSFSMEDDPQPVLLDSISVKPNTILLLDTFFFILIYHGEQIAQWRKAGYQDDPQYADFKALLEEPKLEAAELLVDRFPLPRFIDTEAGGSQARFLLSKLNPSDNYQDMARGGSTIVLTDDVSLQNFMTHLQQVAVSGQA",
  "assay": "pull-down",
  "data": [
    {"substance": "TRAPPI complex (from UniProt P36149 1-193)", "values": [
      {"measurement": "Kd", "value": 630, "unit": "nM"}
    ]}
  ]
}
